This data set deals with the molecule itself. The data set can be described thus: SEC. (In general: SEC sorts molecules by how far they enter the pores of the column.)

B1: DepH from Chromobacterium violaceum No. 968 (enzyme)
chain: not shown
One may read the stoichiometry N as a count of units in the complex or per binding partner. In the case of B1, the “stoichiometry N” value is 2.

The record behind these values is article PMC4894451 (Scientific Reports, 2014).
